Measured values from PMC8053116.

Target: multi-tRNA synthetase complex without ArgRS and GlnRS (human (endogenous in HEK 293T)) (UniProt P56192)
Assay: SEC; lysate of wildtype 293T cells (20 mM Tris-HCl pH 7.5, 1 mM EDTA, 150 mM NaCl, 0.1% IGEPAL CA-630) on Superdex 200 in Dulbecco's PBS; 1 ml fractions analysed by western blot; intact MSC in fractions 10-12

Chain of UniProt P56192 (P56192 whole entry, looked up, one chain of several): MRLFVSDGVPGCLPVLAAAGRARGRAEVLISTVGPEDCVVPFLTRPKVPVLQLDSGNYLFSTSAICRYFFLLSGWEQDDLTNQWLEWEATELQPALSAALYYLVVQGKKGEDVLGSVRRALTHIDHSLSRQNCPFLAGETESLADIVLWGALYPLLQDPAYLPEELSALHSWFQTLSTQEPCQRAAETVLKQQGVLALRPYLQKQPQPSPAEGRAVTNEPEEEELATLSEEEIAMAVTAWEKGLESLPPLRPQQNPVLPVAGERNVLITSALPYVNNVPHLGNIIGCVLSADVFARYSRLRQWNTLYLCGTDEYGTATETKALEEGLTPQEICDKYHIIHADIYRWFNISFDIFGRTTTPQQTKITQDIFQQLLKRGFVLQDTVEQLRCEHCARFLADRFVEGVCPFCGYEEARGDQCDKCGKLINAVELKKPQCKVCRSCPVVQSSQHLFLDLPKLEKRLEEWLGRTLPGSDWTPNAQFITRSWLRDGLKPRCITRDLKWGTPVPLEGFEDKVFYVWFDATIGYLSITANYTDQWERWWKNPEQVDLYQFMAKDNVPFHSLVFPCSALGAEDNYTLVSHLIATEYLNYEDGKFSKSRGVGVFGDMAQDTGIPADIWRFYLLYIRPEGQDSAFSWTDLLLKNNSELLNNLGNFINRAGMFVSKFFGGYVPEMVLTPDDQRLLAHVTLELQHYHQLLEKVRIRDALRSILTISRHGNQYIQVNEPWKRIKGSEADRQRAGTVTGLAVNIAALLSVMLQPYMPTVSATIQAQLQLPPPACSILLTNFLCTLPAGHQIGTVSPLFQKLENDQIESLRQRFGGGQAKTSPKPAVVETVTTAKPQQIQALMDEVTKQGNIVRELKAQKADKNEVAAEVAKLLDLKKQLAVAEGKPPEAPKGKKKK

B1: arginyl-tRNA synthetase, full-length (enzyme)
chain: MDVLVSECSARLLQQEEEIKSLTAEIDRLKNCGCLGASPNLEQLQEENLKLKYRLNILRKSLQAERNKPTKNMINIISRLQEVFGHAIKAAYPDLENPPLLVTPSQQAKFGDYQCNSAMGISQMLKTKEQKVNPREIAENITKHLPDNECIEKVEIAGPGFINVHLRKDFVSEQLTSLLVNGVQLPALGENKKVIVDFSSPNIAKEMHVGHLRSTIIGESISRLFEFAGYDVLRLNHVGDWGTQFGMLIAHLQDKFPDYLTVSPPIGDLQVFYKESKKRFDTEEEFKKRAYQCVVLLQGKNPDITKAWKLICDVSRQELNKIYDALDVSLIERGESFYQDRMNDIVKEFEDRGFVQVDDGRKIVFVPGCSIPLTIVKSDGGYTYDTSDLAAIKQRLFEEKADMIIYVVDNGQSVHFQTIFAAAQMIGWYDPKVTRVFHAGFGVVLGEDKKKFKTRSGETVRLMDLLGEGLKRSMDKLKEKERDKVLTAEELNAAQTSVAYGCIKYADLSHNRLNDYIFSFDKMLDDRGNTAAYLLYAFTRIRSIARLANIDEEMLQKAARETKILLDHEKEWKLGRCILRFPEILQKILDDLFLHTLCDYIYELATAFTEFYDSCYCVEKDRQTGKILKVNMWRMLLCEAVAAVMAKGFDILGIKPVQRM
Q: For B1, which percent of ArgRS not bound to the MSC is on record?
A: The percent of ArgRS not bound to the MSC was 40%.
